Measured values: patent US20090233317

Legend:
[1] = tested on: hsGRIM1 (human Global Repressor Involved in Myogenic differentiation), full length aa 1-749
[2] = tested on: recombinantly expressed GRIM1 aa 3-147

**Q.** Which results are given for “HAT domain of p300 (bacterially expressed)”?
**A.** acetylation of GRIM1 [1]: detection of direct acetylation of GRIM1 (aa3-147 and of full-length GRIM1) by the HAT domain of p300; acetylation of GRIM1 [2]: detection of direct acetylation of GRIM1 (aa3-147 and of full-length GRIM1) by the HAT domain of p300
